Experimental data from article PMC3226482 (Molecular Biology of the Cell, 2011).

Target: T1, karyopherin β2 (human, UniProt Q92973 1-898)
T1 sequence: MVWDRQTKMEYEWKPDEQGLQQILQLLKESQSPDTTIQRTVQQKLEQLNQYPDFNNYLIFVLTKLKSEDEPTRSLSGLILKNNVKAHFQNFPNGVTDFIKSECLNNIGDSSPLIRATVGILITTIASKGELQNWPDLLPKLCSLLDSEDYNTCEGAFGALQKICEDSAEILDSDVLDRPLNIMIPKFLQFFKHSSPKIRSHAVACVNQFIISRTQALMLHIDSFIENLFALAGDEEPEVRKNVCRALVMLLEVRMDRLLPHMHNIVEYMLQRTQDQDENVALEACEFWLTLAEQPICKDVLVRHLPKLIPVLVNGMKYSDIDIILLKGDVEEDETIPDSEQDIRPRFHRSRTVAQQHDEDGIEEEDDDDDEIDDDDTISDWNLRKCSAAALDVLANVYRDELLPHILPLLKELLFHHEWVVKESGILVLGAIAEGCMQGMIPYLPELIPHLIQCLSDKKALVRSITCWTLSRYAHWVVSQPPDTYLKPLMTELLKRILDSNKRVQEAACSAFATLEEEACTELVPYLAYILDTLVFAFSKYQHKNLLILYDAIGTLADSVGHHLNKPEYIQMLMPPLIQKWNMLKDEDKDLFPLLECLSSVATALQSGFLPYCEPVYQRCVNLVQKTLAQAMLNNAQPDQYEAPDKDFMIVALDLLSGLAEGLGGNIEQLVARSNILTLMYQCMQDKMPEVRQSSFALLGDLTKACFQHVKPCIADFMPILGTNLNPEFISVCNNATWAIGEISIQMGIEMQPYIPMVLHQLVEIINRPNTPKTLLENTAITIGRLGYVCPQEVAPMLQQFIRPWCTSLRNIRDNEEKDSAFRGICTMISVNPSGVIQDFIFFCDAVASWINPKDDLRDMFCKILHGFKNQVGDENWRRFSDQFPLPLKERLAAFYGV
Assay: ITC

B1: hsNXF1 fragment, residues 1-92 (domain or fragment)
chain: MADEGKSYSEHDDERVNFPQRKKKGRGPFRWKYGEGNRRSGRGGSGIRSSRLEEDDGDVAMSDAQDGPRVRYNPYTTRPNRRGDTWHDRDRI
Kd: 54 nM
